Test results as given in patent US12679878B2, “CRF2 receptor agonists and their use in therapy” (SANOFI, priority 2020, dated 2026).
Starred links: 1 amine or outer side, 2 acyl side, 3 side chain; linkers in the order of their positions; H or OH if unused. Non-standard residues stand in square brackets, D forms with d. Groups on a side chain read outwards from the residue. No end group written: not given here. *: point of attachment. C20 diacid = O=C(O)CCCCCCCCCCCCCCCCCCC(=O)*; C18 diacid = O=C(O)CCCCCCCCCCCCCCCCC(=O)*; γGlu = O=C(O)[C@H](CCC(=O)[*:2])N[*:1]; Palmitoyl = CCCCCCCCCCCCCCCC(=O)*; AEEA = NCCOCCOCC(=O)O; Aib = CC(C)(N)C(=O)O

Biological target: human corticotropin-releasing factor 2α (CRF2 α receptor) (human), Q13324
Assay: cell-based or functional assay

Sequence of human corticotropin-releasing factor 2α (CRF2 α receptor) (human), Q13324 (Q13324 20-411): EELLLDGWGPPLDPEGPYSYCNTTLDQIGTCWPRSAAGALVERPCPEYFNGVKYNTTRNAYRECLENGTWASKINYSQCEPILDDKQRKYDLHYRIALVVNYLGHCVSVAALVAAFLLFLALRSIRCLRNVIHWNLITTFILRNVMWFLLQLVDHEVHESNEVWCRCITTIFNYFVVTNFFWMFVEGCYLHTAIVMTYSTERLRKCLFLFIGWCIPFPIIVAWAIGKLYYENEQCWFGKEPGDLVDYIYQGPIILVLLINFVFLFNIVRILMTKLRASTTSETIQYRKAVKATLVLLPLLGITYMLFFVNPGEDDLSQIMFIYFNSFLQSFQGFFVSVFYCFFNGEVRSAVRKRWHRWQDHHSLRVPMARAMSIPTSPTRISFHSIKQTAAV

Binder | EC50 [nM], 0% HSA | EC50 [nM], 0.1% HSA
IVLSLD[dV]PTKLK([γGlu-Palmitoyl])QKLLKQERQRKE[Aib]EQAEKNKRILERV-NH2 (N-terminus assumed; SMILES CCCCCCCCCCCCCCCC(=O)N[C@@H](CCC(=O)NCCCC[C@H](NC(=O)[C@H](CC(C)C)NC(=O)[C@H](CCCCN)NC(=O)[C@@H](NC(=O)[C@@H]1CCCN1C(=O)[C@H](NC(=O)[C@H](CC(=O)O)NC(=O)[C@H](CC(C)C)NC(=O)[C@H](CO)NC(=O)[C@H](CC(C)C)NC(=O)[C@@H](NC(=O)[C@@H](N)[C@@H](C)CC)C(C)C)C(C)C)[C@@H](C)O)C(=O)N[C@@H](CCC(N)=O)C(=O)N[C@@H](CCCCN)C(=O)N[C@@H](CC(C)C)C(=O)N[C@@H](CC(C)C)C(=O)N[C@@H](CCCCN)C(=O)N[C@@H](CCC(N)=O)C(=O)N[C@@H](CCC(=O)O)C(=O)N[C@@H](CCCNC(=N)N)C(=O)N[C@@H](CCC(N)=O)C(=O)N[C@@H](CCCNC(=N)N)C(=O)N[C@@H](CCCCN)C(=O)N[C@@H](CCC(=O)O)C(=O)NC(C)(C)C(=O)N[C@@H](CCC(=O)O)C(=O)N[C@@H](CCC(N)=O)C(=O)N[C@@H](C)C(=O)N[C@@H](CCC(=O)O)C(=O)N[C@@H](CCCCN)C(=O)N[C@@H](CC(N)=O)C(=O)N[C@@H](CCCCN)C(=O)N[C@@H](CCCNC(=N)N)C(=O)N[C@H](C(=O)N[C@@H](CC(C)C)C(=O)N[C@@H](CCC(=O)O)C(=O)N[C@@H](CCCNC(=N)N)C(=O)N[C@H](C(N)=O)C(C)C)[C@@H](C)CC)C(=O)O) [SEQ ID NO: 21] | 0.02 nM | –
IVLSLD[dV]PIKLK([AEEA-AEEA-γGlu-C20 diacid])QILLKQARQK[Aib]QRAQAEKNKRILERV-NH2 (N-terminus assumed; SMILES CC[C@H](C)[C@H](N)C(=O)N[C@H](C(=O)N[C@@H](CC(C)C)C(=O)N[C@@H](CO)C(=O)N[C@@H](CC(C)C)C(=O)N[C@@H](CC(=O)O)C(=O)N[C@@H](C(=O)N1CCC[C@H]1C(=O)N[C@H](C(=O)N[C@@H](CCCCN)C(=O)N[C@@H](CC(C)C)C(=O)N[C@@H](CCCCNC(=O)COCCOCCNC(=O)COCCOCCNC(=O)CC[C@H](NC(=O)CCCCCCCCCCCCCCCCCCC(=O)O)C(=O)O)C(=O)N[C@@H](CCC(N)=O)C(=O)N[C@H](C(=O)N[C@@H](CC(C)C)C(=O)N[C@@H](CC(C)C)C(=O)N[C@@H](CCCCN)C(=O)N[C@@H](CCC(N)=O)C(=O)N[C@@H](C)C(=O)N[C@@H](CCCNC(=N)N)C(=O)N[C@@H](CCC(N)=O)C(=O)N[C@@H](CCCCN)C(=O)NC(C)(C)C(=O)N[C@@H](CCC(N)=O)C(=O)N[C@@H](CCCNC(=N)N)C(=O)N[C@@H](C)C(=O)N[C@@H](CCC(N)=O)C(=O)N[C@@H](C)C(=O)N[C@@H](CCC(=O)O)C(=O)N[C@@H](CCCCN)C(=O)N[C@@H](CC(N)=O)C(=O)N[C@@H](CCCCN)C(=O)N[C@@H](CCCNC(=N)N)C(=O)N[C@H](C(=O)N[C@@H](CC(C)C)C(=O)N[C@@H](CCC(=O)O)C(=O)N[C@@H](CCCNC(=N)N)C(=O)N[C@H](C(N)=O)C(C)C)[C@@H](C)CC)[C@@H](C)CC)[C@@H](C)CC)C(C)C)C(C)C) [SEQ ID NO: 175] | 0.06 nM | 3.64 nM
IVLSLD[dV]PIKLK([AEEA-AEEA-γGlu-γGlu-C18 diacid])QILLKQARQK[Aib]QRAQAEKNKRILERV-NH2 (N-terminus assumed; SMILES CC[C@H](C)[C@H](N)C(=O)N[C@H](C(=O)N[C@@H](CC(C)C)C(=O)N[C@@H](CO)C(=O)N[C@@H](CC(C)C)C(=O)N[C@@H](CC(=O)O)C(=O)N[C@@H](C(=O)N1CCC[C@H]1C(=O)N[C@H](C(=O)N[C@@H](CCCCN)C(=O)N[C@@H](CC(C)C)C(=O)N[C@@H](CCCCNC(=O)COCCOCCNC(=O)COCCOCCNC(=O)CC[C@H](NC(=O)CC[C@H](NC(=O)CCCCCCCCCCCCCCCCC(=O)O)C(=O)O)C(=O)O)C(=O)N[C@@H](CCC(N)=O)C(=O)N[C@H](C(=O)N[C@@H](CC(C)C)C(=O)N[C@@H](CC(C)C)C(=O)N[C@@H](CCCCN)C(=O)N[C@@H](CCC(N)=O)C(=O)N[C@@H](C)C(=O)N[C@@H](CCCNC(=N)N)C(=O)N[C@@H](CCC(N)=O)C(=O)N[C@@H](CCCCN)C(=O)NC(C)(C)C(=O)N[C@@H](CCC(N)=O)C(=O)N[C@@H](CCCNC(=N)N)C(=O)N[C@@H](C)C(=O)N[C@@H](CCC(N)=O)C(=O)N[C@@H](C)C(=O)N[C@@H](CCC(=O)O)C(=O)N[C@@H](CCCCN)C(=O)N[C@@H](CC(N)=O)C(=O)N[C@@H](CCCCN)C(=O)N[C@@H](CCCNC(=N)N)C(=O)N[C@H](C(=O)N[C@@H](CC(C)C)C(=O)N[C@@H](CCC(=O)O)C(=O)N[C@@H](CCCNC(=N)N)C(=O)N[C@H](C(N)=O)C(C)C)[C@@H](C)CC)[C@@H](C)CC)[C@@H](C)CC)C(C)C)C(C)C) [SEQ ID NO: 174] | 0.07 nM | 0.88 nM
IVLSLD[dV]PIKLK([AEEA-AEEA-γGlu-C20 diacid])QILLKQERQK[Aib]QREQAEKNKQILAQV-NH2 (N-terminus assumed; SMILES CC[C@H](C)[C@H](N)C(=O)N[C@H](C(=O)N[C@@H](CC(C)C)C(=O)N[C@@H](CO)C(=O)N[C@@H](CC(C)C)C(=O)N[C@@H](CC(=O)O)C(=O)N[C@@H](C(=O)N1CCC[C@H]1C(=O)N[C@H](C(=O)N[C@@H](CCCCN)C(=O)N[C@@H](CC(C)C)C(=O)N[C@@H](CCCCNC(=O)COCCOCCNC(=O)COCCOCCNC(=O)CC[C@H](NC(=O)CCCCCCCCCCCCCCCCCCC(=O)O)C(=O)O)C(=O)N[C@@H](CCC(N)=O)C(=O)N[C@H](C(=O)N[C@@H](CC(C)C)C(=O)N[C@@H](CC(C)C)C(=O)N[C@@H](CCCCN)C(=O)N[C@@H](CCC(N)=O)C(=O)N[C@@H](CCC(=O)O)C(=O)N[C@@H](CCCNC(=N)N)C(=O)N[C@@H](CCC(N)=O)C(=O)N[C@@H](CCCCN)C(=O)NC(C)(C)C(=O)N[C@@H](CCC(N)=O)C(=O)N[C@@H](CCCNC(=N)N)C(=O)N[C@@H](CCC(=O)O)C(=O)N[C@@H](CCC(N)=O)C(=O)N[C@@H](C)C(=O)N[C@@H](CCC(=O)O)C(=O)N[C@@H](CCCCN)C(=O)N[C@@H](CC(N)=O)C(=O)N[C@@H](CCCCN)C(=O)N[C@@H](CCC(N)=O)C(=O)N[C@H](C(=O)N[C@@H](CC(C)C)C(=O)N[C@@H](C)C(=O)N[C@@H](CCC(N)=O)C(=O)N[C@H](C(N)=O)C(C)C)[C@@H](C)CC)[C@@H](C)CC)[C@@H](C)CC)C(C)C)C(C)C) [SEQ ID NO: 173] | 0.03 nM | 3.49 nM
IVLSLD[dV]PIKLK([AEEA-AEEA-γGlu-γGlu-C18 diacid])QILLKQERQKKQRQQAEKNKQILAQV-NH2 (N-terminus assumed; SMILES CC[C@H](C)[C@H](N)C(=O)N[C@H](C(=O)N[C@@H](CC(C)C)C(=O)N[C@@H](CO)C(=O)N[C@@H](CC(C)C)C(=O)N[C@@H](CC(=O)O)C(=O)N[C@@H](C(=O)N1CCC[C@H]1C(=O)N[C@H](C(=O)N[C@@H](CCCCN)C(=O)N[C@@H](CC(C)C)C(=O)N[C@@H](CCCCNC(=O)COCCOCCNC(=O)COCCOCCNC(=O)CC[C@H](NC(=O)CC[C@H](NC(=O)CCCCCCCCCCCCCCCCC(=O)O)C(=O)O)C(=O)O)C(=O)N[C@@H](CCC(N)=O)C(=O)N[C@H](C(=O)N[C@@H](CC(C)C)C(=O)N[C@@H](CC(C)C)C(=O)N[C@@H](CCCCN)C(=O)N[C@@H](CCC(N)=O)C(=O)N[C@@H](CCC(=O)O)C(=O)N[C@@H](CCCNC(=N)N)C(=O)N[C@@H](CCC(N)=O)C(=O)N[C@@H](CCCCN)C(=O)N[C@@H](CCCCN)C(=O)N[C@@H](CCC(N)=O)C(=O)N[C@@H](CCCNC(=N)N)C(=O)N[C@@H](CCC(N)=O)C(=O)N[C@@H](CCC(N)=O)C(=O)N[C@@H](C)C(=O)N[C@@H](CCC(=O)O)C(=O)N[C@@H](CCCCN)C(=O)N[C@@H](CC(N)=O)C(=O)N[C@@H](CCCCN)C(=O)N[C@@H](CCC(N)=O)C(=O)N[C@H](C(=O)N[C@@H](CC(C)C)C(=O)N[C@@H](C)C(=O)N[C@@H](CCC(N)=O)C(=O)N[C@H](C(N)=O)C(C)C)[C@@H](C)CC)[C@@H](C)CC)[C@@H](C)CC)C(C)C)C(C)C) [SEQ ID NO: 176] | 0.11 nM | 3.05 nM
IVLSLD[dV]PIKLK([AEEA-AEEA-γGlu-γGlu-C20 diacid])QILLKQERQKKQRQQAEKNKQILAQV-NH2 (N-terminus assumed; SMILES CC[C@H](C)[C@H](N)C(=O)N[C@H](C(=O)N[C@@H](CC(C)C)C(=O)N[C@@H](CO)C(=O)N[C@@H](CC(C)C)C(=O)N[C@@H](CC(=O)O)C(=O)N[C@@H](C(=O)N1CCC[C@H]1C(=O)N[C@H](C(=O)N[C@@H](CCCCN)C(=O)N[C@@H](CC(C)C)C(=O)N[C@@H](CCCCNC(=O)COCCOCCNC(=O)COCCOCCNC(=O)CC[C@H](NC(=O)CC[C@H](NC(=O)CCCCCCCCCCCCCCCCCCC(=O)O)C(=O)O)C(=O)O)C(=O)N[C@@H](CCC(N)=O)C(=O)N[C@H](C(=O)N[C@@H](CC(C)C)C(=O)N[C@@H](CC(C)C)C(=O)N[C@@H](CCCCN)C(=O)N[C@@H](CCC(N)=O)C(=O)N[C@@H](CCC(=O)O)C(=O)N[C@@H](CCCNC(=N)N)C(=O)N[C@@H](CCC(N)=O)C(=O)N[C@@H](CCCCN)C(=O)N[C@@H](CCCCN)C(=O)N[C@@H](CCC(N)=O)C(=O)N[C@@H](CCCNC(=N)N)C(=O)N[C@@H](CCC(N)=O)C(=O)N[C@@H](CCC(N)=O)C(=O)N[C@@H](C)C(=O)N[C@@H](CCC(=O)O)C(=O)N[C@@H](CCCCN)C(=O)N[C@@H](CC(N)=O)C(=O)N[C@@H](CCCCN)C(=O)N[C@@H](CCC(N)=O)C(=O)N[C@H](C(=O)N[C@@H](CC(C)C)C(=O)N[C@@H](C)C(=O)N[C@@H](CCC(N)=O)C(=O)N[C@H](C(N)=O)C(C)C)[C@@H](C)CC)[C@@H](C)CC)[C@@H](C)CC)C(C)C)C(C)C) [SEQ ID NO: 177] | 0.07 nM | 5.19 nM
